Data as given in paper PMC11370617.

Tests used:
[1] = target: Mus musculus arginyltransferase 1 isoform 1 (MmATE1-1), affinity tag intact, apo (Mus musculus) (UniProt Q9Z2A5); test: SEC-MALS
[2] = target: Mus musculus arginyltransferase 1 isoform 1 (MmATE1-1), affinity tag cleaved, apo (Mus musculus) (UniProt Q9Z2A5); test: SEC-MALS

Which percent of the total protein that is dimeric [1] does the source give for “Mus musculus arginyltransferase 1 isoform 1 (MmATE1-1), affinity tag intact, apo (from UniProt Q9Z2A5 1-516) (enzyme)” here?
Its percent of the total protein that is dimeric is less than 20%.

How did the percent of the total protein that is dimeric [2] turn out when “Mus musculus arginyltransferase 1 isoform 1 (MmATE1-1), affinity tag cleaved, apo (from UniProt Q9Z2A5 1-516) (enzyme)” was run?
Its percent of the total protein that is dimeric is less than 20%.
